Assay results from patent publication US20220185903A1, “Novel bispecific binding molecule and drug conjugate thereof” (priority 2019, published 2022).
Where a SMILES comes first, the peptide text is derived from it. [ ]: non-standard residue; d: D form. The star is where a group is joined. Dolaproine = CO[C@@H]([C@@H]1CCCN1)[C@@H](C)C(=O)O; Dil = CC[C@H](C)[C@H](NC)[C@@H](CC(=O)O)OC; X1 = C[C@@H](N*)[C@@H](O)c1ccccc1; NMeV = CN[C@H](C(=O)O)C(C)C

Tests used:
CD20+/CXCR4+ Ramos cells = test: Killing activity of ADC on co-cultured Ramos/Jurkat cells: Ramos count; type: cell-based
Procedure: (§1) 6.2 Analysis of Killing Activity of ADC on Co-Cultured Ramos/Jurkat Cells
(§2) Ramos and Jurkat cells (RPMI 1640 medium containing 10% FBS and 1% double antibody) were cultured, respectively. Jurkat cells were stained with calcein-AM (eBioscience) and Ramos cells stained with Celltracker Organge CMTMR (Invitrogen) according to protocols provided by the manufacturer, followed by washed for three times with PBS. After cell count, Ramos and Jurkat cells were mixed at a ratio of 1:1, and 2×10^4 Ramos/Jurkat mixed cells were added to a U-shaped bottom 96-well plate (90 ul/well). 10 ul of SYN-AC, RTX or RXT-AC with different concentrations was added to the 96-well plate above, and incubated at 37° C., 5% CO2 for 72 hours. The numbers of the Ramos and Jurkat cells were counted with a flow cytometer (BD LSR II with a BD high throughput Sampler (HTS)).

[1] = test system: CD20−/CXCR4+ Jurkat cells; test: Killing activity of ADC on co-cultured Ramos/Jurkat cells: Jurkat count; type: cell-based; conditions: co-cultured Ramos/Jurkat 1:1, 72 hours, flow cytometer count
Procedure: as §1, §2

CXCR4 [2] = target: T1, CXCR4 (UniProt P61073 1-352, limits assumed); test: cell-based or functional assay
CXCR4 [3] = target: T1, CXCR4; test: flow cytometry on CXCR4+/CD20- Jurkat cells
Procedure: (§3) The CXCR4⁺/CD20⁻ Jurkat cells and CXCR4^dim/CD20⁺JAB cells were cultured in RPMI 1640 medium containing 10% FBS and […]). Cells were collected by centrifugation, and washed with PBS for 3-4 times. After blocked by 1% BSA (in PBS) at 4° C. for 1 h, the cells were resuspended with PBS with 1% BSA at a density of 5×10⁵/100 μL. […] After being washed with PBS with 1% BSA for 3 times, cells were resuspended with PBS/1% BSA containing a PE-anti-human Fc antibody (Clone HP6017, Biolegend, CA), and incubated at 4° C. for 2 hours. Then an LSR II flow cytometer (Becton Dickinson, N.J.) was applied, and FlowJo software (TreeStar, OR) was used for analysis. Data was analyzed by nonlinear regression using a log (agonist) vs. response model in Prizm Graphpad software.

CXCR4 [4] = target: T1, CXCR4; test: flow cytometry on CXCR4+/CD20- Jurkat cells, PE-anti-human Fc detection
Procedure: as §3

CD20 = target: T2, CD20 (UniProt P11836 1-297, limits assumed); test: cell-based or functional assay
T2 sequence (looked up): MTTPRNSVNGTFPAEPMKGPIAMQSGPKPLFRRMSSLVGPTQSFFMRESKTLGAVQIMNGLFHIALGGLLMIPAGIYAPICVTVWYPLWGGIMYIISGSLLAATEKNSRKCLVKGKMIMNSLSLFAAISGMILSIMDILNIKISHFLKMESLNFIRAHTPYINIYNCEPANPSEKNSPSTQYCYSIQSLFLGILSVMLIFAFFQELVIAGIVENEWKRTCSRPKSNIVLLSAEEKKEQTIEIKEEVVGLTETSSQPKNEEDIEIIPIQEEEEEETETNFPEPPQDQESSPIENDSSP

T1 sequence (P61073 whole entry): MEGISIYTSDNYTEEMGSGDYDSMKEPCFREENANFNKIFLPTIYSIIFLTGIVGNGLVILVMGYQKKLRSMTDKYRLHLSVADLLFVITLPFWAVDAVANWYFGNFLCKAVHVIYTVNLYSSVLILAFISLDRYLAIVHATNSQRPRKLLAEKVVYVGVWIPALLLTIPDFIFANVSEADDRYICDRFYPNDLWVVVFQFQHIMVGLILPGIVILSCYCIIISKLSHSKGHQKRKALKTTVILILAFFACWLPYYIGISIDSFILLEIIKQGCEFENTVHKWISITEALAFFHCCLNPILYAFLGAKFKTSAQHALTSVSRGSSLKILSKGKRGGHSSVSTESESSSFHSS

CC[C@H](C)[C@@H]([C@@H](CC(=O)N1CCC[C@H]1[C@H](OC)[C@@H](C)C(=O)N[C@H](C)[C@@H](O)c1ccccc1)OC)N(C)C(=O)[C@@H](NC(=O)[C@@H](NC)C(C)C)C(C)C [MMAE, monomethylalistatin E, reference compound] (H-[NMeV]V[Dil][Dolaproine]-X1)
TI (therapeutic index) (CD20+/CXCR4+ Ramos cells; co-cultured Jurkat and Ramos cells, selectivity Jurkat vs Ramos): 2.7 | EC50 (CD20+/CXCR4+ Ramos cells; co-cultured Ramos/Jurkat 1:1, 72 hours, flow cytometer count): 9.1 ± 3.8 nM | EC50 [1]: 24.5 ± 6.8 nM

B1: SYN-AC-MMAE (SYN-AC conjugated with NHS-PEG4-MMAE) (other)
heavy: QVTLRESGPALVKPTQTLTLTCTFSGFSLSTSGMSVGWIRQPPGKALEWLADIWWDDKKDYNPSLKSRLTISKDTSKNQVVLKVTNMDPADTATYYCARSMITNWYFDVWGAGTTVTVSSASTKGPSVFPLAPSSKSTSGGTAALGCLVKDYFPEPVTVSWNSGALTSGVHTFPAVLQSSGLYSLSSVVTVPSSSLGTQTYICNVNHKPSNTKVDKKVEPKSCDKTHTCPPCPAPPVAGPSVFLFPPKPKDTLMISRTPEVTCVVVDVSHEDPEVKFNWYVDGVEVHNAKTKPREEQYNSTYRVVSVLTVLHQDWLNGKEYKCKVSNKGLPSSIEKTISKAKGQPREPQVYTLPPSRDELTKNQVSLTCLVKGFYPSDIAVEWESNGQPENNYKTTPPVLDSDGSFFLYSKLTVDKSRWQQGNVFSCSVMHEALHNHYTQKSLSLSPGK
light: DIQMTQSPSTLSASVGDRVTITCKCQLSVGYMHWYQQKPGKAPKLLIYDTSKLASGVPSRFSGSGSGTEFTLTISSLQPDDFATYYCFQGSGYPFTFGGGTKLEIKRTVAAPSVFIFPPSDEQLKSGTASVVCLLNNFYPREAKVQWKVDNALQSGNSQESVTEQDSGGSGAKLAALKAKLAALKGGGGSYRKCRGGRRWCYQKGGGGSELAALEAELAALEAGGSGDSTYSLSSTLTLSKADYEKHKVYACEVTHQGLSSPVTKSFNRGEC
modifications: conjugated with NHS-PEG4-MMAE, 0 to 2 per light chain by MS; sites not stated; conjugated with NHS-PEG4-MMAE, 0 to 2 per heavy chain by MS; sites not stated
EC50 (nM), killing of Jurkat cells in co-cultured Ramos/Jurkat cells, 72 h (CXCR4 [2]): 21 nM | EC50 (nM), killing of Ramos cells in co-cultured Ramos/Jurkat cells, 72 h (CXCR4 [2]): 12.6 nM

B2: SYN-AC (Synagis, anti-RSV, with the CXCR4 antagonistic peptide inserted into the constant region of the light chain) (bispecific antibody, human IgG1, kappa)
heavy: QVTLRESGPALVKPTQTLTLTCTFSGFSLSTSGMSVGWIRQPPGKALEWLADIWWDDKKDYNPSLKSRLTISKDTSKNQVVLKVTNMDPADTATYYCARSMITNWYFDVWGAGTTVTVSSASTKGPSVFPLAPSSKSTSGGTAALGCLVKDYFPEPVTVSWNSGALTSGVHTFPAVLQSSGLYSLSSVVTVPSSSLGTQTYICNVNHKPSNTKVDKKVEPKSCDKTHTCPPCPAPPVAGPSVFLFPPKPKDTLMISRTPEVTCVVVDVSHEDPEVKFNWYVDGVEVHNAKTKPREEQYNSTYRVVSVLTVLHQDWLNGKEYKCKVSNKGLPSSIEKTISKAKGQPREPQVYTLPPSRDELTKNQVSLTCLVKGFYPSDIAVEWESNGQPENNYKTTPPVLDSDGSFFLYSKLTVDKSRWQQGNVFSCSVMHEALHNHYTQKSLSLSPGK
light: DIQMTQSPSTLSASVGDRVTITCKCQLSVGYMHWYQQKPGKAPKLLIYDTSKLASGVPSRFSGSGSGTEFTLTISSLQPDDFATYYCFQGSGYPFTFGGGTKLEIKRTVAAPSVFIFPPSDEQLKSGTASVVCLLNNFYPREAKVQWKVDNALQSGNSQESVTEQDSGGSGAKLAALKAKLAALKGGGGSYRKCRGGRRWCYQKGGGGSELAALEAELAALEAGGSGDSTYSLSSTLTLSKADYEKHKVYACEVTHQGLSSPVTKSFNRGEC
notes: hIgG1 Fc with E233P/L234V/L235A/deltaG236+A327G/A330S/P331S
binding result (CXCR4 [3]): binds

B3: RTX (Rituxan, anti-CD20 antibody) (antibody, V domains shown)
VH: QVQLQQPGAELVKPGASVKMSCKASGYTFTSYNMHWVKQTPGRGLEWIGAIYPGNGDTSYNQKFKGKATLTADKSSSTAYMQLSSLTSEDSAVYYCARSTYYGGDWYFNVWGAGTTVTVSA
VL: QIVLSQSPAILSASPGEKVTMTCRASSSVSYIHWFQQKPGSSPKPWIYATSNLASGVPVRFSGSGSGTSYSLTISRVEAEDAATYYCQQWTSNPPTFGGGTKLEIKR
notes: Rituxan Fab heavy chain cloned into pFuse-hIgG1-Fc carrying E233P/L234V/L235A/deltaG236+A327G/A330S/P331S; expressed in HEK293
binding result (CXCR4 [4]): no binding

B4: RTX-MMAE (RTX conjugated with NHS-PEG4-MMAE) (other)
heavy: QVQLQQPGAELVKPGASVKMSCKASGYTFTSYNMHWVKQTPGRGLEWIGAIYPGNGDTSYNQKFKGKATLTADKSSSTAYMQLSSLTSEDSAVYYCARSTYYGGDWYFNVWGAGTTVTVSAASTKGPSVFPLAPSSKSTSGGTAALGCLVKDYFPEPVTVSWNSGALTSGVHTFPAVLQSSGLYSLSSVVTVPSSSLGTQTYICNVNHKPSNTKVDKKVEPKSCDKTHTCPPCPAPPVAGPSVFLFPPKPKDTLMISRTPEVTCVVVDVSHEDPEVKFNWYVDGVEVHNAKTKPREEQYNSTYRVVSVLTVLHQDWLNGKEYKCKVSNKGLPSSIEKTISKAKGQPREPQVYTLPPSRDELTKNQVSLTCLVKGFYPSDIAVEWESNGQPENNYKTTPPVLDSDGSFFLYSKLTVDKSRWQQGNVFSCSVMHEALHNHYTQKSLSLSPGK
light: QIVLSQSPAILSASPGEKVTMTCRASSSVSYIHWFQQKPGSSPKPWIYATSNLASGVPVRFSGSGSGTSYSLTISRVEAEDAATYYCQQWTSNPPTFGGGTKLEIKRTVAAPSVFIFPPSDEQLKSGTASVVCLLNNFYPREAKVQWKVDNALQSGNSQESVTEQDSKDSTYSLSSTLTLSKADYEKHKVYACEVTHQGLSSPVTKSFNRGEC
modifications: conjugated with NHS-PEG4-MMAE, 0 to 2 per light chain by MS; sites not stated; conjugated with NHS-PEG4-MMAE, 0 to 2 per heavy chain by MS; sites not stated
EC50 (nM), killing of Ramos cells in co-cultured Ramos/Jurkat cells, 72 h (CD20): 6 nM

B5: RTX-AC-MMAE (RTX-AC conjugated with NHS-PEG4-MMAE) (other)
heavy: QVQLQQPGAELVKPGASVKMSCKASGYTFTSYNMHWVKQTPGRGLEWIGAIYPGNGDTSYNQKFKGKATLTADKSSSTAYMQLSSLTSEDSAVYYCARSTYYGGDWYFNVWGAGTTVTVSAASTKGPSVFPLAPSSKSTSGGTAALGCLVKDYFPEPVTVSWNSGALTSGVHTFPAVLQSSGLYSLSSVVTVPSSSLGTQTYICNVNHKPSNTKVDKKVEPKSCDKTHTCPPCPAPPVAGPSVFLFPPKPKDTLMISRTPEVTCVVVDVSHEDPEVKFNWYVDGVEVHNAKTKPREEQYNSTYRVVSVLTVLHQDWLNGKEYKCKVSNKGLPSSIEKTISKAKGQPREPQVYTLPPSRDELTKNQVSLTCLVKGFYPSDIAVEWESNGQPENNYKTTPPVLDSDGSFFLYSKLTVDKSRWQQGNVFSCSVMHEALHNHYTQKSLSLSPGK
light: QIVLSQSPAILSASPGEKVTMTCRASSSVSYIHWFQQKPGSSPKPWIYATSNLASGVPVRFSGSGSGTSYSLTISRVEAEDAATYYCQQWTSNPPTFGGGTKLEIKRTVAAPSVFIFPPSDEQLKSGTASVVCLLNNFYPREAKVQWKVDNALQSGNSQESVTEQDSGGSGAKLAALKAKLAALKGGGGSYRKCRGGRRWCYQKGGGGSELAALEAELAALEAGGSGDSTYSLSSTLTLSKADYEKHKVYACEVTHQGLSSPVTKSFNRGEC
modifications: conjugated with NHS-PEG4-MMAE, 0 to 2 per light chain by MS; sites not stated; conjugated with NHS-PEG4-MMAE, 0 to 3 per heavy chain by MS; sites not stated
EC50 (nM), killing of Ramos cells in co-cultured Ramos/Jurkat cells, 72 h (CD20): 0.29 nM | EC50 (nM), killing of Ramos cells in co-cultured Ramos/Jurkat cells, 72 h (CXCR4 [2]): 0.29 nM

B6: RTX-AC (Rituxan with the CXCR4 antagonistic peptide inserted into the constant region of the light chain) (bispecific antibody, human IgG1, kappa)
heavy: QVQLQQPGAELVKPGASVKMSCKASGYTFTSYNMHWVKQTPGRGLEWIGAIYPGNGDTSYNQKFKGKATLTADKSSSTAYMQLSSLTSEDSAVYYCARSTYYGGDWYFNVWGAGTTVTVSAASTKGPSVFPLAPSSKSTSGGTAALGCLVKDYFPEPVTVSWNSGALTSGVHTFPAVLQSSGLYSLSSVVTVPSSSLGTQTYICNVNHKPSNTKVDKKVEPKSCDKTHTCPPCPAPPVAGPSVFLFPPKPKDTLMISRTPEVTCVVVDVSHEDPEVKFNWYVDGVEVHNAKTKPREEQYNSTYRVVSVLTVLHQDWLNGKEYKCKVSNKGLPSSIEKTISKAKGQPREPQVYTLPPSRDELTKNQVSLTCLVKGFYPSDIAVEWESNGQPENNYKTTPPVLDSDGSFFLYSKLTVDKSRWQQGNVFSCSVMHEALHNHYTQKSLSLSPGK
light: QIVLSQSPAILSASPGEKVTMTCRASSSVSYIHWFQQKPGSSPKPWIYATSNLASGVPVRFSGSGSGTSYSLTISRVEAEDAATYYCQQWTSNPPTFGGGTKLEIKRTVAAPSVFIFPPSDEQLKSGTASVVCLLNNFYPREAKVQWKVDNALQSGNSQESVTEQDSGGSGAKLAALKAKLAALKGGGGSYRKCRGGRRWCYQKGGGGSELAALEAELAALEAGGSGDSTYSLSSTLTLSKADYEKHKVYACEVTHQGLSSPVTKSFNRGEC
notes: hIgG1 Fc with E233P/L234V/L235A/deltaG236+A327G/A330S/P331S; also called RXT-AC
binding result (CXCR4 [3]): binds
